Sequences and labels used below:
B1: YKTSAAAA peptide / Pirh2 NTD + RING (residues 1–189) [human] (parent complex)
chain 1: YKTSAAAA
chain 2: MAATAREDGASGQERGQRGCEHYDRGCLLKAPCCDKLYTCRLCHDNNEDHQLDRFKVKEVQCINCEKIQHAQQTCEECSTLFGEYYCDICHLFDKDKKQYHCENCGICRIGPKEDFFHCLKCNLCLAMNLQGRHKCIENVSRQNCPICLEDIHTSRVVAHVLPCGHLLHRTCYEEMLKEGYRCPLCMHS
B2: Ala6/C-degron peptide (sequence: YKTSAAAAAA) / Pirh2 NTD + RING (residues 1–189) [human] (parent complex)
chain 1: YKTSAAAAAA
chain 2: B1 chain 2

Variants of B1 are the subject of the first test. The test can be described thus: ITC. On the technique in general: Isothermal titration calorimetry measures the heat released or taken up as one component is titrated into another.
For chain 1 A5P, the Kd (as a rule, the constant that tells how readily two partners part at equilibrium) is 57 µM. Still for that read-out and setting: under chain 1 A5G stands 55 µM; under chain 1 A5S, 4.5 µM.

In a further test the parent is B1. The test can be described thus: ITC. This is another data set of the same source.
In the case of chain 1 A6V, the Kd was found to be 1.9 µM. Regarding chain 1 A6G, the Kd is 2.3 µM. Take chain 1 A6L: the Kd was found to be 2.8 µM. On the same count and under the same terms, under chain 1 A6S stands 3 µM; under chain 1 A6I, 2.7 µM.

In the next test the parent is B1. The test can be described thus: ITC. The source holds these as a separate data set.
Consider chain 1 A8G, for which the Kd came to 23 µM.

In another test the parent is B1. Briefly: ITC. The source holds these as a separate data set.
In the case of chain 1 A7P, the Kd was determined as 26 µM. With chain 1 A7G, the Kd stood at 22 µM. On the same count and under the same terms, under chain 1 A7I stands 13 µM; under chain 1 A7V, 13 µM; under chain 1 A7S, 20 µM.

In a further test the parent is B2. Briefly: ITC.
On to chain 1 A8T, for which the Kd came out at 0.7 µM.

The values above are taken from paper PMC10148881 (2023).
